Experimental data published in the RNAGym collection of RNA variant scans (doi:10.1093/nar/gkz1192).

B1: CPEB3 Ribozyme (parent)
chain: UAACAGGGGGCCACAGCAGAAGCGUUCACGUCGCAGCCCCUGUCAGAUUCUGGUGAAUCUGCGAAUUCUGCUGUAUAUCUC

Variants of: B1
Assay: self-cleavage, relative activity (ratio to wild type); higher = more cleavage; in vitro, sequencing
Procedure, shortened: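 For each CPEB3 ribozyme variant, relative activity is its cleaved/total read fraction divided by the unmutated ribozyme's. Barcoded error-prone PCR libraries were transcribed by T7 RNA polymerase (5 hours, 37°C) and held in DNase I for 15 min before an EDTA stop, with cleavage occurring throughout. Template-switching reverse transcription and Illumina sequencing were used to read the RNAs. A 5-read minimum applied, and results are the mean of three batches.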

Variant	self-cleavage
UAACAGGGGGCCACAGCAGCAGCGUUCACGUCGCAGCCCCUGUCAGAUUCUGGUGAAUCUGCGAAUCCUGCUGUAUAUCUC [A20C U67C]	0.33
UAACAGGGGGCCACAGCAGGAGCGUUCUCGUCGCAGCCCCUGUCAGAUUCUGGUGAAUCUGCGAAUUCUGCUGUAUAUCUC [A20G A28U]	0.58
UAACAGGGGGCCACAGCAGGAGCGUUCCCGUCGCAGCCCCUGUCAGAUUCUGGUGAAUCUGCGAAUUCUGCUGUAUAUCUC [A20G A28C]	0.52
UAACAGGGGGCCACAGCAGGAGCGUUCGCGUCGCAGCCCCUGUCAGAUUCUGGUGAAUCUGCGAAUUCUGCUGUAUAUCUC [A20G A28G]	0.44
UAACAGGGGGCCACAGCAGCAGCGUUCACGUCGCAGCCCCUGCCAGAUUCUGGUGAAUCUGCGAAUUCUGCUGUAUAUCUC [A20C U43C]	0.28
UAACAGGGGGCCACAGCAGCAGCGUUCACGUCGCAGCCCCUGACAGAUUCUGGUGAAUCUGCGAAUUCUGCUGUAUAUCUC [A20C U43A]	0.35
UAACAGGGGGCCACAGCAGCAGCGUUCACGUCGCAGCCCCUGUCAGAUUCAGGUGAAUCUGCGAAUUCUGCUGUAUAUCUC [A20C U51A]	0.32
UAACAGGGGGCCACAGCAGCAGCGUUCACGUCGCAGCCCCCGUCAGAUUCUGGUGAAUCUGCGAAUUCUGCUGUAUAUCUC [A20C U41C]	0.29
UAACAGGGGGCCACAGCAGCAGCAUUCACGUCGCAGCCCCUGUCAGAUUCUGGUGAAUCUGCGAAUUCUGCUGUAUAUCUC [A20C G24A]	0.21
UAACAGGGGGCCACAGCAGCAGCCUUCACGUCGCAGCCCCUGUCAGAUUCUGGUGAAUCUGCGAAUUCUGCUGUAUAUCUC [A20C G24C]	0.1
UAACAGGGGGCCACAGCAGCAGCGUUCACGUCGCAGCCCCUGUCAGAUUCUGGUGAAUCUGCGAAUUCUGCUGCAUAUCUC [A20C U74C]	0.46
UAACAGGGGGCCACAGCAGCAGCGUUCACGUCGCAGCCCCUGUCAGAUUCUGGUGAAUCUGCGAACUCUGCUGUAUAUCUC [A20C U66C]	0.23
UAACAGGGGGCCACAGCAGCAGCGUUCACGUCGCAGCCCCUGUCAGAUUCUGGUGAAUCUGCGAAGUCUGCUGUAUAUCUC [A20C U66G]	0.45
UAACAGGGGGCCACAGCAGCAGCGUUCACGUCGCAGUCCCUGUCAGAUUCUGGUGAAUCUGCGAAUUCUGCUGUAUAUCUC [A20C C37U]	0.13
UAACAGGGGGCCACAGCAGGUGCGUUCACGUCGCAGCCCCUGUCAGAUUCUGGUGAAUCUGCGAAUUCUGCUGUAUAUCUC [A20G A21U]	0.26
UAACAGGGGGCCACAGCAGGCGCGUUCACGUCGCAGCCCCUGUCAGAUUCUGGUGAAUCUGCGAAUUCUGCUGUAUAUCUC [A20G A21C]	0.32
UAACAGGGGGCCACAGCAGGGGCGUUCACGUCGCAGCCCCUGUCAGAUUCUGGUGAAUCUGCGAAUUCUGCUGUAUAUCUC [A20G A21G]	0.37
UAACAGGGGGCCACAGCAGCAGCGUUCACGUCGCAGCCCCUGUUAGAUUCUGGUGAAUCUGCGAAUUCUGCUGUAUAUCUC [A20C C44U]	0.22
UAACAGGGGGCCACAGCAGGAGCGUUCACGUCGCAGCCCCUGUCAGAUUCUGGUGGAUCUGCGAAUUCUGCUGUAUAUCUC [A20G A56G]	0.66
UAACAGGGGGCCACAGCAGGAGCGUUCACGUCGCAGCCCCUGUCAGAUUCUGGUGUAUCUGCGAAUUCUGCUGUAUAUCUC [A20G A56U]	0.47
UAACAGGGGGCCACAGCAGCAGCGUUCACGUCGCAGCCCCUGUCAGAUUCUGGUGAAUCUGCGAAUUCAGCUGUAUAUCUC [A20C U69A]	0.34
UAACAGGGGGCCACAGCAGCAGCGUUCACGUCGCAGCCCCUGUCAGAUUCUGGUGAAUCUGCGAAUUCCGCUGUAUAUCUC [A20C U69C]	0.18
UAACAGGGGGCCACAGCAGCAGCGUUCACGUCGCAGCCCCUGUCAGAUUCUGGUGAAUCUGCGAAUUCUGCUGUAUAUCAC [A20C U80A]	0.51

Variant	self-cleavage
UAACAGGGGGCCACAGCAGCAGCGUUCACGUCGCAGCCCCUGUCAGAUUCUGGUGAAUCUGCGAAUUCUGCUGUAUAUCCC [A20C U80C]	0.54
UAACAGGGGGCCACAGCAGGAGCGUUCACGUCGCCGCCCCUGUCAGAUUCUGGUGAAUCUGCGAAUUCUGCUGUAUAUCUC [A20G A35C]	0.65
UAACAGGGGGCCACAGCAGGAGCGUUCACGUCGCGGCCCCUGUCAGAUUCUGGUGAAUCUGCGAAUUCUGCUGUAUAUCUC [A20G A35G]	1.25
UAACAGGGGGCCACAGCAGGAGCGUUCACGUCGCUGCCCCUGUCAGAUUCUGGUGAAUCUGCGAAUUCUGCUGUAUAUCUC [A20G A35U]	0.34
UAACAGGGGGCCACAGCAGCAGCGUUCACGUCGCAGCCCCUGUCAGAUUCUGGUGAAUCUGUGAAUUCUGCUGUAUAUCUC [A20C C62U]	0.12
UAACAGGGGGCCACAGCAGCAGCGUUCACGUCGCAGCCCCUGUCAGAUUCUGGCGAAUCUGCGAAUUCUGCUGUAUAUCUC [A20C U54C]	0.2
UAACAGGGGGCCACAGCAGCAGCGUUCACGUCGCAGCCCCUGUCAGAUUCUGGUGAAUCUGCGAAUUCUGCGGUAUAUCUC [A20C U72G]	0.09
UAACAGGGGGCCACAGCAGCAGCGUUCACGUCGCAGCCCCUGUCAGAUUCUGGUGAAUCUGCGAAUUCUGCCGUAUAUCUC [A20C U72C]	0.3
UAACAGGGGGCCACAGCAGCAGCGUUCACGUCGCAGCCCCUGUCAGAUUCUGGUGAAUCUGCGAAUUCUGCAGUAUAUCUC [A20C U72A]	0.33
UAACAGGGGGCCACAGCAGCAGCGCUCACGUCGCAGCCCCUGUCAGAUUCUGGUGAAUCUGCGAAUUCUGCUGUAUAUCUC [A20C U25C]	0.28
UAACAGGGGGCCACAGCAGCAGCGAUCACGUCGCAGCCCCUGUCAGAUUCUGGUGAAUCUGCGAAUUCUGCUGUAUAUCUC [A20C U25A]	0.31
UAACAGGGGGCCACAGCAGCAGCGUUCACGUCGCAGCCCCUGUCAGAUUCUGGUGAACCUGCGAAUUCUGCUGUAUAUCUC [A20C U58C]	0.43
UAACAGGGGGCCACAGCAGCAGCGUUCACGUCGUAGCCCCUGUCAGAUUCUGGUGAAUCUGCGAAUUCUGCUGUAUAUCUC [A20C C34U]	0.18
UAACAGGGGGCCACAGCAGGAGCGUUCACGUCGCAGCCCCUGUCAGAUUCUGGUGAAUCUGCGAAUUCUGCUGUAUCUCUC [A20G A77C]	0.79
UAACAGGGGGCCACAGCAGGAGCGUUCACGUCGCAGCCCCUGUCGGAUUCUGGUGAAUCUGCGAAUUCUGCUGUAUAUCUC [A20G A45G]	0.61
UAACAGGGGGCCACAGCAGGAGCGUUCACGUCGCAGCCCCUGUCCGAUUCUGGUGAAUCUGCGAAUUCUGCUGUAUAUCUC [A20G A45C]	0.24
UAACAGGGGGCCACAGCAGGAGCGUUCACGUCGCAGCCCCUGUCUGAUUCUGGUGAAUCUGCGAAUUCUGCUGUAUAUCUC [A20G A45U]	0.3
UAACAGGGGGCCACAGCAGCAGCGUUCACGCCGCAGCCCCUGUCAGAUUCUGGUGAAUCUGCGAAUUCUGCUGUAUAUCUC [A20C U31C]	0.14
UAACAGGGGGCCACAGCAGCAGCGUUCACGUCGCAGCCCCUGUCAGAUACUGGUGAAUCUGCGAAUUCUGCUGUAUAUCUC [A20C U49A]	0.16
UAACAGGGGGCCACAGCAGCAGCGUUCACGUCGCAGCCCCUGUCAGAUCCUGGUGAAUCUGCGAAUUCUGCUGUAUAUCUC [A20C U49C]	0.17
UAACAGGGGGCCACAGCAGGAGCGUUCACGUCGCAGCCCCUGUCAGUUUCUGGUGAAUCUGCGAAUUCUGCUGUAUAUCUC [A20G A47U]	0.42
UAACAGGGGGCCACAGCAGGAGCGUUCACGUCGCAGCCCCUGUCAGGUUCUGGUGAAUCUGCGAAUUCUGCUGUAUAUCUC [A20G A47G]	0.75
UAACAGGGGGCCACAGCAGGAGCGUUCACGUCGCAGCCCCUGUCAGCUUCUGGUGAAUCUGCGAAUUCUGCUGUAUAUCUC [A20G A47C]	0.44

Variant	self-cleavage
UAACAGGGGGCCACAGCAGGAGCGUUCACGUCGCAGCCCCUGUCAGAUUCUGGUGACUCUGCGAAUUCUGCUGUAUAUCUC [A20G A57C]	0.26
UAACAGGGGGCCACAGCAGGAGCGUUCACGUCGCAGCCCCUGUCAGAUUCUGGUGAGUCUGCGAAUUCUGCUGUAUAUCUC [A20G A57G]	0.7
UAACAGGGGGCCACAGCAGGAGCGUUCACGUCGCAGCCCCUGUCAGAUUCUGGUGAUUCUGCGAAUUCUGCUGUAUAUCUC [A20G A57U]	0.53
UAACAGGGGGCCACAGCAGCAGCGUUCACUUCGCAGCCCCUGUCAGAUUCUGGUGAAUCUGCGAAUUCUGCUGUAUAUCUC [A20C G30U]	0.05
UAACAGGGGGCCACAGCAGGAGCGUUCACGUCGCAGCCCCUGUCAGAUUCUGGUGAAUCUGCGACUUCUGCUGUAUAUCUC [A20G A65C]	0.13
UAACAGGGGGCCACAGCAGGAGCGUUCACGUCGCAGCCCCUGUCAGAUUCUGGUGAAUCUGCGAUUUCUGCUGUAUAUCUC [A20G A65U]	0.29
UAACAGGGGGCCACAGCAGGAGCGUUCACGUCGCAGCCCCUGUCAGAUUCUGGUGAAUCUGCGAGUUCUGCUGUAUAUCUC [A20G A65G]	0.32
UAACAGGGGGCCACAGCAGCAGCGUUCACGUAGCAGCCCCUGUCAGAUUCUGGUGAAUCUGCGAAUUCUGCUGUAUAUCUC [A20C C32A]	0.25
UAACAGGGGGCCACAGCAGGAGCGUUCACGUCGCAGCCCCUGUCAGAUUCUGGUGAAUCUGCGAAUUCUGCUGUUUAUCUC [A20G A75U]	0.71
UAACAGGGGGCCACAGCAGGAGCGUUCACGUCGCAGCCCCUGUCAGAUUCUGGUGAAUCUGCGAAUUCUGCUGUGUAUCUC [A20G A75G]	0.81
UAACAGGGGGCCACAGCAGCAGCGUUCACGUCGCAGCCCCUGUCAGACUCUGGUGAAUCUGCGAAUUCUGCUGUAUAUCUC [A20C U48C]	0.28
UAACAGGGGGCCACAGCAGGAGCGUUCACGUCGCAGCCCCUGUCAGAUUCUGGUGAAUCUGCGAAUUCUGCUGUAUAUCUC [A20G]	0.89
UAACAGGGGGCCACAGCAGCAGCGUCCACGUCGCAGCCCCUGUCAGAUUCUGGUGAAUCUGCGAAUUCUGCUGUAUAUCUC [A20C U26C]	0.34
UAACAGGGGGCCACAGCAGCAGCGUACACGUCGCAGCCCCUGUCAGAUUCUGGUGAAUCUGCGAAUUCUGCUGUAUAUCUC [A20C U26A]	0.21
UAACAGGGGGCCACAGCAGGAGCGUUCACGUCGCAGCCCCUGUCAGAUUCUGGUGAAUCUGCGUAUUCUGCUGUAUAUCUC [A20G A64U]	0.31
UAACAGGGGGCCACAGCAGGAGCGUUCACGUCGCAGCCCCUGUCAGAUUCUGGUGAAUCUGCGGAUUCUGCUGUAUAUCUC [A20G A64G]	0.65
UAACAGGGGGCCACAGCAGGAGCGUUCACGUCGCAGCCCCUGUCAGAUUCUGGUGAAUCUGCGCAUUCUGCUGUAUAUCUC [A20G A64C]	0.53
UAACAGGGGGCCACAGCAGCAGCGUUCACGUCGCAGCCCCUGUCAGAUUCUGGUGAAUCUGCGAAUUCUGCUGUAUACCUC [A20C U78C]	0.4
UAACAGGGGGCCACAGCAGCAGCGUUCAUGUCGCAGCCCCUGUCAGAUUCUGGUGAAUCUGCGAAUUCUGCUGUAUAUCUC [A20C C29U]	0.12
UAACAGGGGGCCACAGCAGCAGCGUUCACGUCGCAGCCGCUGUCAGAUUCUGGUGAAUCUGCGAAUUCUGCUGUAUAUCUC [A20C C39G]	0.07
UAACAGGGGGCCACAGCAGCAGCGUUCACGUCGCAGCCCCUGUCAGAUUCUGGUGAAUCCGCGAAUUCUGCUGUAUAUCUC [A20C U60C]	0.17
UAACAGGGGGCCACAGCAGCAGCGUUCACGUCGCAGCCCCUGUCAGAUUCUGGUGAAUCAGCGAAUUCUGCUGUAUAUCUC [A20C U60A]	0.43
